The values that follow come from article PMC10782416, “Fluorescence Correlation Spectroscopy as a Versatile Method to Define Aptamer–Protein Interactions with Single-Molecule Sensitivity”.

One data set addresses PDGF-BB (Homo sapiens, UniProt P01127 82-190). Nature of the data set: FCS; 1 mg/mL BSA; 1 mM Mg2+ in folding buffer; titration regime; PBS pH 7.4; aptamer folded in PBS with 5 mM MgCl2 (1 mM for AS1411 and 36t), 90 C 2 min then cooled; final buffer not detailed; overnight at room temperature; 100 pM aptamer (1 nM for serum proteins). The following applies: protein: commercial; chain copies: 2; label: 5'-atto633.

For data set [1], the target named is T1, c-Met (soluble recombinant, hepatocyte growth factor receptor) (Homo sapiens, UniProt P08581 25-932). Nature of the data set: FCS; c-Met up to 100 nM; PBS pH 7.4; aptamer folded in PBS with 5 mM MgCl2 (1 mM for AS1411 and 36t), 90 C 2 min then cooled; final buffer not detailed; overnight at room temperature; 100 pM aptamer (1 nM for serum proteins). The following applies: protein: commercial; tags: polyhistidine tag; chain copies: 2; label: 5'-atto633; G-quadruplex destabilized.
T1 sequence (P08581 25-932): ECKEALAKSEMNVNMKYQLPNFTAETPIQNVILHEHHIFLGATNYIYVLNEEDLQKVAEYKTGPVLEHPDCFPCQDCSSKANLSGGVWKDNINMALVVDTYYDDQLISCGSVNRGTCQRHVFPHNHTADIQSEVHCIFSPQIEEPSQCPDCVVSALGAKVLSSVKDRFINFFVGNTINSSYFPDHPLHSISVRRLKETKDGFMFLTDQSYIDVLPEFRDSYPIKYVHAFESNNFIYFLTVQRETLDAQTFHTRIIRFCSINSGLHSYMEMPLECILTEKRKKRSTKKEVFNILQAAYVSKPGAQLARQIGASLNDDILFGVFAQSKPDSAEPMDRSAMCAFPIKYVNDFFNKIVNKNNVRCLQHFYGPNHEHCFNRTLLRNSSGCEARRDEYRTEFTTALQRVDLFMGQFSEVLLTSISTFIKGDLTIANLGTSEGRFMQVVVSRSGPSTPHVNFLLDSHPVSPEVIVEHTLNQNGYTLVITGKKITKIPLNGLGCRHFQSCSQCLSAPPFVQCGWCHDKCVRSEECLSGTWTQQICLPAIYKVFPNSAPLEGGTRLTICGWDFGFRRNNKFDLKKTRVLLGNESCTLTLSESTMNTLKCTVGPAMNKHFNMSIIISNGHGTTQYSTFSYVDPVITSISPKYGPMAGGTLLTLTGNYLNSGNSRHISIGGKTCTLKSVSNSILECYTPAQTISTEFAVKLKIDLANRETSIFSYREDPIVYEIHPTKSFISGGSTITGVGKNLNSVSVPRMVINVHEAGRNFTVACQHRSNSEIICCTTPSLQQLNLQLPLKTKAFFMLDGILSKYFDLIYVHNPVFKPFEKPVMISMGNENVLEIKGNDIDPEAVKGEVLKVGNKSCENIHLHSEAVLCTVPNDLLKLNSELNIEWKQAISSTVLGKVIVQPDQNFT

The next data set addresses nucleolin (NCL) (Homo sapiens, UniProt P19338 1-710). Briefly: FCS; 1 mM Mg2+ in folding buffer; PBS pH 7.4; aptamer folded in PBS with 5 mM MgCl2 (1 mM for AS1411 and 36t), 90 C 2 min then cooled; final buffer not detailed; overnight at room temperature; 100 pM aptamer (1 nM for serum proteins). The conditions noted are these: protein: commercial; label: 5'-atto633.
Another data set addresses transferrin (Tf) (Homo sapiens, UniProt P02787 20-698). Nature of the data set: FCS; Tf 1-100 uM; PBS pH 7.4; aptamer folded in PBS with 5 mM MgCl2 (1 mM for AS1411 and 36t), 90 C 2 min then cooled; final buffer not detailed; overnight at room temperature; 100 pM aptamer (1 nM for serum proteins). The following applies: protein: native; label: 5'-atto633; G-quadruplex.
In the next data set the target is fibrinogen (Fibr) (Homo sapiens, UniProt P02671;P02675;P02679 20-629;31-491;27-433). Briefly: FCS; fibrinogen 1-10 uM; PBS pH 7.4; aptamer folded in PBS with 5 mM MgCl2 (1 mM for AS1411 and 36t), 90 C 2 min then cooled; final buffer not detailed; overnight at room temperature; 100 pM aptamer (1 nM for serum proteins). The conditions noted are these: protein: native; chain copies: 2;2;2; label: 5'-atto633; G-quadruplex.
fibrinogen (Fibr), sequence (P02671 20-629, chain 1 of 3): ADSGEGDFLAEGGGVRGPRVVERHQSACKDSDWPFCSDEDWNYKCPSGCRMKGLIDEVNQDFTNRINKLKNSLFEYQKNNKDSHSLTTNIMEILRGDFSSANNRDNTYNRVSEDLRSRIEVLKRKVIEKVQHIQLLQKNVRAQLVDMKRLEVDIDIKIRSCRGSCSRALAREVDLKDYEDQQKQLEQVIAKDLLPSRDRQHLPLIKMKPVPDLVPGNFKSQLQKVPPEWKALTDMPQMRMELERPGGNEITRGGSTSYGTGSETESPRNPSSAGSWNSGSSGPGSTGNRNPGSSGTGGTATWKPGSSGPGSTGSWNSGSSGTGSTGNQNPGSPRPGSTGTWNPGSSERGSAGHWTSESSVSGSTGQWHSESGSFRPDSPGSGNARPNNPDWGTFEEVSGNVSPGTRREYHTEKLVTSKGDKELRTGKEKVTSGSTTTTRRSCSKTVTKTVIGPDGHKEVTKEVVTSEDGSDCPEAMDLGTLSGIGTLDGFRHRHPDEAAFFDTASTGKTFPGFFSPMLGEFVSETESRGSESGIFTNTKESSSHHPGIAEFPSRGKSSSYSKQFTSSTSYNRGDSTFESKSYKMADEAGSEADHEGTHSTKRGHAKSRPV
fibrinogen (Fibr), sequence (P02675 31-491, chain 2 of 3): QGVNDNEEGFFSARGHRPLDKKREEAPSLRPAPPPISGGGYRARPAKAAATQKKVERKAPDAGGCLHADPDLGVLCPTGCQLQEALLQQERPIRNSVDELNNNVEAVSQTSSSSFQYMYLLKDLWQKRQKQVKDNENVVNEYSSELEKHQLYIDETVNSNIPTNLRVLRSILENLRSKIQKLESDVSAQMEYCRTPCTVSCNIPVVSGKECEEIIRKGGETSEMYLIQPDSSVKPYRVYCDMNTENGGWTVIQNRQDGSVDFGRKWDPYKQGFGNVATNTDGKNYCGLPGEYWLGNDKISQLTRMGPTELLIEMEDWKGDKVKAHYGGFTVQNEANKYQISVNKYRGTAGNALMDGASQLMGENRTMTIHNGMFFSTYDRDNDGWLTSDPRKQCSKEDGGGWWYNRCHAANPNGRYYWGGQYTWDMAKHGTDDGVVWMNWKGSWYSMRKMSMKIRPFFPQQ
fibrinogen (Fibr), sequence (P02679 27-433, chain 3 of 3): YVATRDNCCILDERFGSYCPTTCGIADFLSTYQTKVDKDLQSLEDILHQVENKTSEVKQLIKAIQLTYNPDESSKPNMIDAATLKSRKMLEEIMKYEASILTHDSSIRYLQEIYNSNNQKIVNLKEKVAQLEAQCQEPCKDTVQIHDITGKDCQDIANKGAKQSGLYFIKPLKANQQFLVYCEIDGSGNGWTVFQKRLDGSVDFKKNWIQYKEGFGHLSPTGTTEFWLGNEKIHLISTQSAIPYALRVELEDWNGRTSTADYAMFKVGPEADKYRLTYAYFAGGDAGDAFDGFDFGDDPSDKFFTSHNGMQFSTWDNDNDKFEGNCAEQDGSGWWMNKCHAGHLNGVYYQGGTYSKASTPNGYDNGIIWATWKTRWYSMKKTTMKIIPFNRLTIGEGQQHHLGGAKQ

The target of data set [2] is T1, c-Met (soluble recombinant, hepatocyte …). Briefly: FCS; 5 mM Mg2+ in folding buffer; 100 pM aptamer; PBS pH 7.4; aptamer folded in PBS with 5 mM MgCl2 (1 mM for AS1411 and 36t), 90 C 2 min then cooled; final buffer not detailed; overnight at room temperature; 100 pM aptamer (1 nM for serum proteins). The following applies: protein: commercial; tags: polyhistidine tag; label: 5'-atto633; G-quadruplex.

Data set [3] shares this target. Nature of the data set: FCS; serum protein mix: HSA, IgG, transferrin, fibrinogen; PBS pH 7.4; aptamer folded in PBS with 5 mM MgCl2 (1 mM for AS1411 and 36t), 90 C 2 min then cooled; final buffer not detailed; overnight at room temperature; 100 pM aptamer (1 nM for serum proteins). The conditions noted are these: protein: commercial; tags: polyhistidine tag; label: 5'-atto633; G-quadruplex.

For data set [4] the target is unchanged. Briefly: FCS kinetics (koff/kon); kon 1.70e4 M-1 s-1; koff 4.30e-4 s-1; PBS pH 7.4; aptamer folded in PBS with 5 mM MgCl2 (1 mM for AS1411 and 36t), 90 C 2 min then cooled; final buffer not detailed; overnight at room temperature; 100 pM aptamer (1 nM for serum proteins). The following applies: protein: commercial; tags: polyhistidine tag; label: 5'-atto633; G-quadruplex.

nucleolin (NCL), sequence (P19338 whole entry): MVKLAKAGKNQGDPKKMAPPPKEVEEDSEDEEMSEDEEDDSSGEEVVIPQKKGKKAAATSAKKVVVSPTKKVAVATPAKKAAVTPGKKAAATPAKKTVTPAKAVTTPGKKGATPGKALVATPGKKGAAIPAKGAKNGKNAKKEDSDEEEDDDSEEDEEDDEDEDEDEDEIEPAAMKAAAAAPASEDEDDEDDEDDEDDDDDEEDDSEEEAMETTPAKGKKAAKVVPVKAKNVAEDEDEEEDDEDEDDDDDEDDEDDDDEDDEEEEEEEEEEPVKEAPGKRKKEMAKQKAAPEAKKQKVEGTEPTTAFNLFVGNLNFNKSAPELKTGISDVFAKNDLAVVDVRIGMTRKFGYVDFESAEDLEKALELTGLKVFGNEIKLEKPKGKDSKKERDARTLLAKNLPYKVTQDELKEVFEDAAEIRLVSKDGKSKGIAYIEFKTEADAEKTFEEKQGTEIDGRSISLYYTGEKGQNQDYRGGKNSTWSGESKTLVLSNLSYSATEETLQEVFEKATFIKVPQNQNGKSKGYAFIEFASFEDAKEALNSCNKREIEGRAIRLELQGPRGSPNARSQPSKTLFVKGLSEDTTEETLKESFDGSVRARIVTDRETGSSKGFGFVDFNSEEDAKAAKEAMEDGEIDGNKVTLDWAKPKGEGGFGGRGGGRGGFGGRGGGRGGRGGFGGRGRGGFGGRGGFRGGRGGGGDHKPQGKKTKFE
PDGF-BB, sequence (P01127 82-190): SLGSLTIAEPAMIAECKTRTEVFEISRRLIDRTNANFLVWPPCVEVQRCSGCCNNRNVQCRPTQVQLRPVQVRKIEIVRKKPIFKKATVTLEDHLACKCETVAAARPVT
transferrin (Tf), sequence (P02787 20-698): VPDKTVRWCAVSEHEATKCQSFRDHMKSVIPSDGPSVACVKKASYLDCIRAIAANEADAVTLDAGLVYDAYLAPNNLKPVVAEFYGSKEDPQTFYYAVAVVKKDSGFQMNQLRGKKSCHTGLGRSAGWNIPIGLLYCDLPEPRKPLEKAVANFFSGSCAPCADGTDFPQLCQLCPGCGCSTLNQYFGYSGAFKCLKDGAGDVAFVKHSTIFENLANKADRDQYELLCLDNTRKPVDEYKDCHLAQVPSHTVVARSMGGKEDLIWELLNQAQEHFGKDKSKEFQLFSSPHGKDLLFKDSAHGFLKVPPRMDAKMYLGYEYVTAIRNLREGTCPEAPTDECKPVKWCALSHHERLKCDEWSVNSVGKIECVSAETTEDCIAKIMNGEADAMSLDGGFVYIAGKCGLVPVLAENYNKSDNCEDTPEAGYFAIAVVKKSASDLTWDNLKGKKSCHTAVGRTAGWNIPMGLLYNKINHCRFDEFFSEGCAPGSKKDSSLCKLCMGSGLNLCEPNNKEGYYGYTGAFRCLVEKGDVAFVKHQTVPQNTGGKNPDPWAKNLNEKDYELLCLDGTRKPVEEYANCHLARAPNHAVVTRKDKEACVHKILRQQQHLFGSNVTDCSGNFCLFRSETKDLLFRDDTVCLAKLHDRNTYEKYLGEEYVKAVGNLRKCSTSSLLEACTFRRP

Turning to CACAGGCTACGGCACGTAGAGCATCACCATGATCCTGTG (structured_DNA) [36t], in the data set with PDGF-BB, the Kd (as a rule, a measure of binding affinity in units of concentration) is < 1 nM.

B1: G5mut (ssDNA)
DNA: ATCAGGCTGGATGGTAGCTCGGTCGATGTGGATGGTTTGTCAAGTCTGATTA
With B1, in data set [1], the binding result is given as “no binding”.
As for TTTGGTGGTGGTGGTTGTGGTGGTGGTGG (structured_DNA) [AS1411], the affinity in the data set with nucleolin (NCL), expressed as Kd, was 30 nM.

B2: CLN3 (structured_DNA)
DNA: ATCAGGTGGATGGTAGCTCGGTCGGGGTGGGTGGGTTGGCAAGTCTGATTA
As to B2, the binding result with transferrin (Tf) and in the data set with fibrinogen (Fibr) was “no binding” in each case. Further, the Kd in data set [2] is 5 ± 1 nM; in data set [3], 5 nM; in data set [4], ~25 nM.
